Reference: a protein production outcome set (Wang et al. 2014)

test: label from the status in PepcDB records
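Note: failed if final PepcDB status was selected cloned or expressed and not failed if soluble or beyond.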

Sequence | protein production
MTDTLFKIMFEGQVRDGVEPETAKANLAGLFKSETAAVQKLFNGEPIALKRGLVHAEAERYIEALKEAGVEARIEPDQAISFNLNEVGNQASPWTPARQAPQDASPYAPPKAQVGSEHYGHSTLKVFTTNGRIGRLRFLAWSMVQCVALVALIALALIVLNWSLVAGGLLIAVLVVVFVTIGVMIGVQRLHDLGWSGWLLLLNLVPFVGSLFPFLIMLLPGTRGANQYGPPPPPNTRGVKVLGIIWIAMIPVISVASIYYSIGKLAEAELALQTDEYEQSLPYDDEQEPGSALNAPADVIEEPQDQNDKQ | failed
MTDWIQNLMDSMGYLGILLLMVLENVFPPIPSELIMPSAGFAAARGDMSLGMVVLMGTLGSVIGTLPLYYIGRAFGEDKLVAWADKHGKWLTLSGKDIKKADAWFDRYGAGAVLFGRMVPGIRSLLSLPAGMSEMPLPKFLIYSAIGSALWSAALAYAGYALGENYDRVEQYVAPVSKVIVGLLVIGAAAWFIRRKREQGSRTGG | failed
MTEAPRKITDDPYGAWHLIRRLVMEQASAYWRRYALAFGLMAIAAAATSGSAFLLGKVINQAYVDRDLQGIMFWSVVTLVVFSLKGAATYGQSVILTQIKNAILANNQRRMFHKLMSESIGFFSQRHSSEFLARLTAGANSVTEVLNLLINAIGRDLLSLIGLVIVMVVQDPFMALFGLLVAPPAAFVVRKLVKRVKGLALTQFTGNAQILETMQESLQGIRTVKAFSLEKTMSDRIDANIAAVQANADKMAKVSNRSSPLMETLGGFAVAASLMYGGYRVVATGATPGEFFSFLTAFLLAYEPAKRLARLNIELNSGLVGARMLLEIIDSPPSEPDDSHKPALQLTEARVEFDHVSFAYRPDEPVLNAMSFVAEPGKMTALVGPSGGGKSTVLALLLRLYEVQSGEIRIDGQSTSTVSRESLRRQTAYVGQDVYLFRDTVRANIAFGKLGATEDEIVAAAKAACAHDFIMGFPLGYDTPVGEHGAQLSGGQRQRIAVARALLRDAPIVLLDEATAALDSESEKLVQEAIDRLARGRTTIVIAHRLHTIMHADSILVVEAGEIVEQGRHDDLLRRSGRYASFFRLQQRHATPLAPADATA | failed
MTEEQLQALRAAISVCRRCRDEPARGEGHRLPHEPRPVAVLSASARILIAGQAPGLRVHESGLPFNDASGDRLRQWLSVDRAAFYDQRNFAIVPMGFCFPGYDRHGSDLPPRSECAPLWRQRAMDAMPQIELVLAVGHYAQRWHLGTDCPKSMTETVRNWQRYAKRNSGISVLPLPHPSWRNTGWLRRHPWFEAELLPFLRERVQALTI | failed
MTEFKVVHTICPYCGTGCGIDLVVKDGKVVDSHPFKRHPVNEGKVCIKGNYCYEFVHSEDRLTKPLIKKNGEFIEATWDEALDLIAGKLKQYSPEEVAFFSCARGTNEESYALQKFARTVMKTNNVDHCARI | failed
MTEIATIEKPAQHGATTRLIDIVFPGDTNHHGTLFGGTGLALMDRVAFIAATRFGRTPFVTASCERIDFRQPARIGHIVEFTARPVKAGRRSLTVEVEMVAETIIGRQQHTCTRGIFHMVAIPEGEDAASYVLPELLTEETPDPSDAVTMVEIVFPDQANSAGRMFGGEAIAYMTKAAFVAASRYCGKLVVLASSERIDFARAIEIGEIVEAQAHVERVGRSSMSIQTKLWSENLLTGERHITATGHFTMVAVDKDHRPATIRDPAEAFSLEKGGA | not failed
MTEITGGTLVLVGADHPVAHLDVTAFEASVTHDVMAASVAGTGLGVSTATAAGLSHLVVDAGVAQPVQGARSVRIRGERGDLRHADAMTPVQVEALLRDGQALGAEASHDGLVCLGEVGVGNTTIATALACAMTGLGPDEAVGLGAGSDTAMVERKAEIIKAALTRTHTDPNDPERLLAALGGPEFAVLAGVCLGAAEAGSPVVLDGLATSVAALIATKFSPGLHGWLVASQASREQVHHIVLAELGLEALMELRMRAGLEHHHHHH | failed
MTEKTIRVLVAGLGNMGRSHALAYHNNPGFEIVGLVNRSTPELAAELQGYTIHPDFMTALAELKPDLCSINTYSDSHADYAVAAFEAGCDVFVEKPLATTVADAERVVAAAGKAGRKLVIGYILRHHPSWMKLIGEARKLGPPYVFRMNLNQQSSGPTWATHKSLMRTTSPIVDCGVHYVDVMCQITDARAVEVRGMGLRMSDEIAADMYNYGHLQVLFEDGSVGWYEAGWGPMISETAFFVKDVMSPKGAVSIVMDPNAKSDDIDTHTKTSVIRLHTAETGPDGKFIRPDQDMTMEGEPGHQALCDLEQAFMLRAIREDLDLDRHMADAVASLRICLAADESVRTGQPVRL | failed
MTELAQLQASAEQAAALLKAMSHPKRLLILCMLSGSPGTSAGELTRITGLSASATSQHLARMRDEGLIDSQRDAQRILYSIKNEAVNAIIATLKNVYCP | not failed
MTELDQFWPACLARLEAELSSQQFNTWIKPLTAEAGDEGIALFAPNRFIMQFIKDRFLPRIEELAVELVGELPVELRLGAPTARPAAPVAGNSQPKAKEPAKAAASAPAAPSPAKQAAVKAIGGSHESTRLNPSFTFDTLVTGKGNQLARAAAMQIAENPGDQAYNPLFVYGGVGLGKTHLIQAIGNHVFQKNPQAKIRYIHAERYVADIMRAYQHKAFDEFKRYYHSLDLLLIDDIQFFAGKNRTQEEFFYAFNALIEGGKQVIMTCDSYPKQIEGMEERLISRFSWGLTVEIQPPELEMRVAILMKKAEADSIKLEHNVAFFIAQNVRSNVRELEGALKRVVAYARFTSQNITLELVKEALKDILAAGNRQVTVDAIQKTVAEYYKIKLSDMHSKKRSRDIARPRQVAMALAKELTQLSLPNIGDAFGGRDHTTVLHACKTITEMRASDADIAHDYEALLSMLRNLEHHHHHH | failed
MTELFIFDREDQLLTTLTESTGLVRALFREELNRVPNQPFAFTIEASSEEAKHVIEEHQVVFRDKEGDLRLFVIKELEDVDGLDGPQTTAICEPAFMELAEHMIVEQSVVNQPAHEALNVALQGTRWTGSVEVNLGNATEHFSYVSAIEAVWNILVTWGGDFKDVVTFNAENRITSHQIKIVQRRGVDRGKRFEIDHNIEQIERTILSYPVTALYGRGASLQGENGEDGSLDFGEVEWRKSAGAPVDKPKGQLWVGDPEALQKYGRKHNGQLLHREGIFQNTNIEDPEELLEKTWEQLQKSSKPEVHYRLSVRLFEHISGYEHEQASLGDTAIAIDRQFSRPIEIQSRIIAIEYDLVDIDGTGMVEMGQFLSLNGMDERLERIIEEIEKNQGKWGSSGTITRDKYPDIKPSAPVNLRAESGFQAIQLYWDYADELYIEHYEVYGSQVSDFVPDSQHLLWRGKVSAFAHFVDKDQQWYYYVRAVNFHGRPSDWSDKVSGSTQRIISDDILFGPDLAERLRELNRISDIIGEGGVNFEQISDHAKALLNQEARQYTDEEIRAVEDAINAELAEKAGLTYVEGKFSLIDSELEAVDGKFVSVSTQLAEIETEISLKAEQTQVDVIEGEITNVAQDLSQLTVSVNGVQSEVTSIRSGIGHLVEIVNGKATEYKLHFSFNASRDYLVLLTRADLTGARNYVAGTFFGRRVSGNVGSGKIEVIFNNSSNGDRASGYFEASEIQTLNGWSMVTCDYKGEKYIALRHQLPNEHDIWNTDTRFYGQIGSDSEMLLPVDNWGGNPDITNIQPFESSRPVATPIMRAETRIDQNSQQIALRATEINSLAGRMTQAEAELSVQATEIAARVEKDGIVTALNLSPEGIRIKGSLIHLDGTTLINDGVIQNAHIANAAITRAKLDTAVIGTAQIEDLAVTSAKIASVNADKINAASLSAISANLGTVTAGVMRSNNNNMELNLNTGTLNMRNTNFTLGSGADIEFTDPGNRLYFKQYDPVGNITRSAGFGIGRSINDRFPYGFLGTTNTTKPNPIDDQNFTGFITNTNQRMITDGIGNSVVGRIFHIRDQAVSFRKGVAFNFSDSTTMNIFPINTGSYDYVFGSNNNKWKDIHADNIRAAQVYIRNPVGTGGYLFETQPESGSATMVFRGINVSFSDWNYNLGTSSAPWNFGRINHLRPSGSSHSVGSFSERYNFVYTNTLVEGSDIKIKSDIKNSFLGLAFIKDLRPVDFQLVENEQYKTGLIAQEVAAELEHHGIDLEKQTIVTINDSVMGVSYTQLIAPTIKAIQELDSYVRDEVNSLKLENQRLKEKITKLEEKIA | failed
